The numbers were not newly measured in article PMC12692597, which cites them from elsewhere.

The target in the data set is IL-13 (Homo sapiens) (UniProt P35225).
Sequence of UniProt P35225 (P35225 25-146): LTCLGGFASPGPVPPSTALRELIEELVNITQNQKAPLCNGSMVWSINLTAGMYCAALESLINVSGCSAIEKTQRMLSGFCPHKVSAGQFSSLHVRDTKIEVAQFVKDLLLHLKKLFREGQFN

Consider IL-13Rα2 (from UniProt Q14627), for which the dissociation constant (Kd) (commonly the concentration at which binding is half-saturated) was 0.02 nM.
